Test results as given in patent US8003854B2, “GRG32: a novel EPSP synthase gene conferring herbicide resistance” (Athenix Corp., priority 2006, dated 2011).

Test system: E. coli cells
Assay: Glyphosate screen: growth of pRSF1b clones on M63+ plates with glyphosate
Format: cell-based
Conditions: two days at 37° C.
Experimental: The pRSF1b clones were plated onto M63+ plates containing antibiotic and either 0 mM or 50 mM glyphosate. Growth was scored after two days growth at 37° C.

B1: GRG32: glyphosate-resistant EPSP synthase; predicted translation product of grg32 (SEQ ID NO:2), expressed from clone pAX1950 in pRSF1b (protein)
chain: MTASASWTARKGQPLQGSLTIPGDKSVSHRAVMFAALADGVSHIDGFLEGEDTRATAAIFSQMGVRIETPSPSQRIVHGVGVDGLQAPAGPLDCGNAGTGMRLLAGLLAAQPFDAVMVGDESLSRRPMRRVTGPLAQMGAKIDTEADGTPPLRVHGGQPLHGIDFASPVASAQVKSAVLLAGLYAQGETSVTEPHPTRDYSERMLRAFGVEIEFSPGKARLRGGQRLRATDIAVPADFSSAAFFLVAASIIPGSALTLRQVGLNPRRTGLLAALRLMGADIREENHAEQGGEAVADLVVRHAPLHGAEIPEALVPDMIDEFPALFVAAAAAQGNTIVRGAAELRVKESDRLAAMATGLRSLGVQVDETEDGATIHGGHELGSGTIESHGDHRIAMAFAIAGQLSSGEVRINDIANVATSFPNFDGIARTAGFNLG
modifications: Isolated from soil sample
B1 was tested, and the “resistance to 50 mM glyphosate in E. coli cells” value was “confer resistance”.
